Laboratory results: patent US20090263894A1 (AbbVie / Abbott, published 2009)
Where a chain is given by its changes, count along the chain named.

How the values were obtained:
[1] = target: T1, human NGAL (C87S) produced in E. coli, NGAL(+)mut8 (human, UniProt P80188 21-198, 15N/2H or 13C/15N isotope label (NMR, Example 8); BHQ-10S quencher label (KD titrations, Example 9)); test: DC-FCCS sandwich formation in solution; second antibody mAb 809
T1 construct: also called BHQ-NGAL; isotope-labeled human NGAL
T1 chain: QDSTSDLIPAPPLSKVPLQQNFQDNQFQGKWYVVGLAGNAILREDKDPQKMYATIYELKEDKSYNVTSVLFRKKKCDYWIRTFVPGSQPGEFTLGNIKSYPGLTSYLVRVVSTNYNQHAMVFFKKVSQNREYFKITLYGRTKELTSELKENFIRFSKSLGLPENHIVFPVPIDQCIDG
Protocol: Samples were placed in a 96-microwell optical bottom plate (Nalge Nunc International, Rochester, N.Y.). The excitation wavelength was set at 810 nm, 3 mW on the sample. Sampling rate was set at 200 KHz and 10 million points were collected for each measurement. Each sample was measured twice. Experiments were performed on each sample after one-hour incubation.
Labeled antibodies were mixed at equal concentration (40 μL of 10 nM mAbs) and ligand (15 nM NGAL) was added to the solution. Cross-correlation curves before and after adding NGAL were calculated from the data sets acquired in each channel and the data were normalized.
For illustration purposes, a relative number was assigned to each antibody pair, which, in fact, is the ratio of Gx(0) values before and after the addition of NGAL to the antibodies (Table 13). All ratio values were corrected for the background. A value of “1” indicates no sandwich formation, values between 1.1 and 2.5 indicate a poor sandwich formation, and all values above 2.6 indicate productive antibody pairing.

[2] = target: T2, human NGAL antigen (Neutrophil Gelatinase Associated Lipocalin) (human, UniProt P80188 21-198, biotin label in the hybridoma EIAs); test: SPR (BIAcore): mAb captured on anti-mouse Fc, 100 nM NGAL
T2 construct: also called NGAL-Bt; biotin labeled NGAL
Protocol: Using BIAcore, NGAL hybrid supernatants are evaluated for relative binding affinity to NGAL and grouped accordingly in NGAL binding epitope groups. The affinity assay was completed on a goat anti-mouse IgG Fc Capture Biosensor as follows. Flow cells were first equilibrated with a running buffer (hereinafter “Running Buffer”) that contains HBS-EP buffer spiked with 0.1% BSA and 0.1% CM-Dextran), at 10 μL/min. Next, 13 μL of supernatant was floated across individual flow cells capturing anti-NGAL antibody from the supernatant onto the biosensor, and with one flow cell being left blank as a reference flow cell. The flow cells then were washed for 5 minutes at 50 μL/min with Running Buffer, and 150 μL of NGAL antigen at a 100 nM concentration was injected across the chip followed by 5 minutes of Running Buffer. The relative binding kinetics, association and dissociation, were monitored via sensorgrams. The sensorgrams were analyzed using Scrubber 2.0 software (BioLogic Software Pty Ltd., Australia) to determine association and dissociation rates, as well as overall KD.

[3] = target: T3, NGAL rAg S158A displayed on yeast (human, UniProt P80188 21-198); test: flow cytometry titration of the mAb on yeast displaying the NGAL antigen, detection with GaM-PE, fractional binding
T3 construct: Yeast display AGA2 fusion as m5
T3 chain: T1 chain with S87C, S158A

[4] = target: T4, NGAL rAg S14A displayed on yeast (human, UniProt P80188 21-198); test: as above
T4 construct: Yeast display AGA2 fusion as m5
T4 chain: T1 chain with S14A, S87C

[5] = target: T5, wild-type NGAL antigen displayed on yeast (AGA2 fusion) (human, UniProt P80188 21-198); test: as above
T5 construct: also called WT

[6] = target: T4, NGAL rAg S14A displayed on yeast; test: flow cytometry, mAb titrated on yeast displaying NGAL
Protocol: (§1) The side chain of each of the NGAL rAg residues identified from the epitope selections was altered by site-directed mutagenesis to alanine to confirm the functional epitope (direct contact residues) of each NGAL mAb subclone.
(§2) The change in Gibbs free binding energy (ΔΔG_Ala-WT) was determined to assess the energetic impact of each alanine substitution for mAb binding. The change in Gibbs free binding energy upon alanine substitution was calculated using the following equation [2],
(§3) For these experiments, observed fluorescence (F) was used to solve for KD using equation [1]. The KD derived from equation [1] one was then used in equation [2] to derive the change in Gibbs free binding energy upon alanine substitution. The KD is read from the abscissa of each of the curves at the inflection point.

[7] = target: T6, NGAL rAg K15A displayed on yeast (human, UniProt P80188 21-198); test: flow cytometry, mAb titrated on yeast displaying NGAL; from the highest mAb concentration tested
T6 construct: Yeast display AGA2 fusion as m5
T6 chain: T1 chain with K15A, S87C
Protocol: as §1, §2, §3

[8] = target: T7, NGAL rAg R109A displayed on yeast (human, UniProt P80188 21-198); test: as above
T7 construct: Yeast display AGA2 fusion as m5
T7 chain: T1 chain with S87C, R109A
Protocol: as §1, §2, §3

B1: anti-NGAL monoclonal antibody 1-2322-455 (antibody, V domains shown)
VH: EVQLVESGGGLVQPGGSLKLSCAASGFTFNNYYMSWVRQTPERRLEWVAYISSSGGSTYYSDSVRGRFTISRDTARNTLYLQMTSLKSEDTAMYYCARHFGDYSYFDYWGQGTTLTVSS
VL: DIQMTQSPASLSASVGETVTITCRASENFYSYLAWYQQKQGKSPQLLVYNAKTLAEGVPSRFSGSGSGTQFSLKINSLQPEDFGTYYCQHHYDIPLTFGAGTKLELKR
ratio of Gx(0) before and after adding NGAL [1]: 1.5 | Kd [2]: 0.155 nM | koff [2]: 7.28e-05 s⁻¹ | kon [2]: 468000 M⁻¹ s⁻¹

B2: anti-NGAL monoclonal antibody 1-903-430 (antibody, V domains shown)
VH: KIQLVQSGPELKKPGETVKISCKASGYTFTNYGMNWVKQAPGKGLKWMGWININTGEPTYAEEFKGRFAFSLETSATTAFLQINNLKNEDTATYLCARDSYSGGFDYWGQGTIVTVSS
VL: DIVMTQSPSSLSVSAGEKVTLSCKSSQSLLISGDQKNYLAWYQQKPGQPPKLLIYGASTRDSGVPDRFTGSGSGADFTLTISSVQAEDLAVYYCQNDHSFPPTFGAGTKLELKR
ratio of Gx(0) before and after adding NGAL [1]: 3 | EC50 (read off the curve) [3]: ~200 pM | EC50 (read off the curve) [4]: ~300 pM | EC50 (read off the curve) [5]: ~200 pM | Kd [6]: 0.281 nM | ΔKD (KD against KD of WT) [6]: 1.38 fold | ΔΔG Ala-WT [6]: 0.19 kcal/mol | ΔKD (KD against KD of WT) [7]: > 24500 fold | ΔΔG Ala-WT [7]: > 5.97 kcal/mol | ΔKD (KD against KD of WT) [8]: > 24500 fold | ΔΔG Ala-WT [8]: > 5.97 kcal/mol | Kd [2]: 1.01 nM | koff [2]: 0.000272 s⁻¹ | kon [2]: 269000 M⁻¹ s⁻¹
